Reference: patent US20210032299A1 (Eli Lilly, published 2021)
Starred links: 1 amine or outer side, 2 acyl side, 3 side chain; linkers in the order of their positions; H or OH if unused. Non-standard residues stand in square brackets, D forms with d. Groups on a side chain read outwards from the residue. No end group written: not given here. *: point of attachment. C20 diacid = O=C(O)CCCCCCCCCCCCCCCCCCC(=O)*; αMePhe(2-F) = C[C@](N)(Cc1ccccc1F)C(=O)O; γGlu = O=C(O)[C@H](CCC(=O)[*:2])N[*:1]; αMeY = C[C@](N)(Cc1ccc(O)cc1)C(=O)O; 4Pal = N[C@@H](Cc1ccncc1)C(=O)O; αMeL = CC(C)C[C@](C)(N)C(=O)O; AEEA = NCCOCCOCC(=O)O; Aib = CC(C)(N)C(=O)O

T1: human glucose-dependent insulinotropic polypeptide (GIP) receptor (human, UniProt P48546 22-466)
T1 construct: whole, on cells; Assayed as crude membranes of stably transfected CHO cells; also called hGIPR; human GIP receptor
T1 sequence (looked up): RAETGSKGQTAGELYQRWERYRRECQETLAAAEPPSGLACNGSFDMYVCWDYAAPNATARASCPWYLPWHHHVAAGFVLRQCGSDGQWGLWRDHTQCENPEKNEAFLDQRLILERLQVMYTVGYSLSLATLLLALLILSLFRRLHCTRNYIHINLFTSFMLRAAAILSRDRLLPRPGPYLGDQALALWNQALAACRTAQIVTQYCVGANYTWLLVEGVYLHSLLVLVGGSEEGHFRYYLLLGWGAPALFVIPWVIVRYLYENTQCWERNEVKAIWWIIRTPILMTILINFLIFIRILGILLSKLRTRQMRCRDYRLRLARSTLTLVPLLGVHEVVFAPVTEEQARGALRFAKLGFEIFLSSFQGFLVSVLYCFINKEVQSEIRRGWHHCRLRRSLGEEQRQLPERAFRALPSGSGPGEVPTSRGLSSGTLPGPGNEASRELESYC

B1: Example 91 (peptide)
peptide: Y[Aib]EGTFISDYSI[αMeL]LDKK([AEEA-AEEA-γGlu-C20 diacid])HQ[Aib]DFVE[αMeY]LLEGGPSSGAPPPS-NH2
modifications: N-terminus assumed
SMILES: CC[C@H](C)[C@H](NC(=O)[C@H](Cc1ccccc1)NC(=O)[C@@H](NC(=O)CNC(=O)[C@H](CCC(=O)O)NC(=O)C(C)(C)NC(=O)[C@@H](N)Cc1ccc(O)cc1)[C@@H](C)O)C(=O)N[C@@H](CO)C(=O)N[C@@H](CC(=O)O)C(=O)N[C@@H](Cc1ccc(O)cc1)C(=O)N[C@@H](CO)C(=O)N[C@H](C(=O)N[C@@](C)(CC(C)C)C(=O)N[C@@H](CC(C)C)C(=O)N[C@@H](CC(=O)O)C(=O)N[C@@H](CCCCN)C(=O)N[C@@H](CCCCNC(=O)COCCOCCNC(=O)COCCOCCNC(=O)CC[C@H](NC(=O)CCCCCCCCCCCCCCCCCCC(=O)O)C(=O)O)C(=O)N[C@@H](Cc1c[nH]cn1)C(=O)N[C@@H](CCC(N)=O)C(=O)NC(C)(C)C(=O)N[C@@H](CC(=O)O)C(=O)N[C@@H](Cc1ccccc1)C(=O)N[C@H](C(=O)N[C@@H](CCC(=O)O)C(=O)N[C@@](C)(Cc1ccc(O)cc1)C(=O)N[C@@H](CC(C)C)C(=O)N[C@@H](CC(C)C)C(=O)N[C@@H](CCC(=O)O)C(=O)NCC(=O)NCC(=O)N1CCC[C@H]1C(=O)N[C@@H](CO)C(=O)N[C@@H](CO)C(=O)NCC(=O)N[C@@H](C)C(=O)N1CCC[C@H]1C(=O)N1CCC[C@H]1C(=O)N1CCC[C@H]1C(=O)N[C@@H](CO)C(N)=O)C(C)C)[C@@H](C)CC
B2: Example 8 (peptide)
peptide: Y[Aib]EGTFISDYSILLDKK([AEEA-AEEA-γGlu-C20 diacid])AQ[Aib]DFVNWLLAQGPSSGAPPPS-NH2
modifications: N-terminus assumed
SMILES: CC[C@H](C)[C@H](NC(=O)[C@H](CO)NC(=O)[C@H](Cc1ccc(O)cc1)NC(=O)[C@H](CC(=O)O)NC(=O)[C@H](CO)NC(=O)[C@@H](NC(=O)[C@H](Cc1ccccc1)NC(=O)[C@@H](NC(=O)CNC(=O)[C@H](CCC(=O)O)NC(=O)C(C)(C)NC(=O)[C@@H](N)Cc1ccc(O)cc1)[C@@H](C)O)[C@@H](C)CC)C(=O)N[C@@H](CC(C)C)C(=O)N[C@@H](CC(C)C)C(=O)N[C@@H](CC(=O)O)C(=O)N[C@@H](CCCCN)C(=O)N[C@@H](CCCCNC(=O)COCCOCCNC(=O)COCCOCCNC(=O)CC[C@H](NC(=O)CCCCCCCCCCCCCCCCCCC(=O)O)C(=O)O)C(=O)N[C@@H](C)C(=O)N[C@@H](CCC(N)=O)C(=O)NC(C)(C)C(=O)N[C@@H](CC(=O)O)C(=O)N[C@@H](Cc1ccccc1)C(=O)N[C@H](C(=O)N[C@@H](CC(N)=O)C(=O)N[C@@H](Cc1c[nH]c2ccccc12)C(=O)N[C@@H](CC(C)C)C(=O)N[C@@H](CC(C)C)C(=O)N[C@@H](C)C(=O)N[C@@H](CCC(N)=O)C(=O)NCC(=O)N1CCC[C@H]1C(=O)N[C@@H](CO)C(=O)N[C@@H](CO)C(=O)NCC(=O)N[C@@H](C)C(=O)N1CCC[C@H]1C(=O)N1CCC[C@H]1C(=O)N1CCC[C@H]1C(=O)N[C@@H](CO)C(N)=O)C(C)C
B3: Example 39 (peptide)
peptide: Y[Aib]EGT[αMePhe(2-F)]ISDYSIALDKK([AEEA-AEEA-γGlu-C20 diacid])HQ[Aib]DFVE[4Pal]LLEGGPSSGAPPPS-NH2
modifications: N-terminus assumed
SMILES: CC[C@H](C)[C@H](NC(=O)[C@H](CO)NC(=O)[C@H](Cc1ccc(O)cc1)NC(=O)[C@H](CC(=O)O)NC(=O)[C@H](CO)NC(=O)[C@@H](NC(=O)[C@](C)(Cc1ccccc1F)NC(=O)[C@@H](NC(=O)CNC(=O)[C@H](CCC(=O)O)NC(=O)C(C)(C)NC(=O)[C@@H](N)Cc1ccc(O)cc1)[C@@H](C)O)[C@@H](C)CC)C(=O)N[C@@H](C)C(=O)N[C@@H](CC(C)C)C(=O)N[C@@H](CC(=O)O)C(=O)N[C@@H](CCCCN)C(=O)N[C@@H](CCCCNC(=O)COCCOCCNC(=O)COCCOCCNC(=O)CC[C@H](NC(=O)CCCCCCCCCCCCCCCCCCC(=O)O)C(=O)O)C(=O)N[C@@H](Cc1c[nH]cn1)C(=O)N[C@@H](CCC(N)=O)C(=O)NC(C)(C)C(=O)N[C@@H](CC(=O)O)C(=O)N[C@@H](Cc1ccccc1)C(=O)N[C@H](C(=O)N[C@@H](CCC(=O)O)C(=O)N[C@@H](Cc1ccncc1)C(=O)N[C@@H](CC(C)C)C(=O)N[C@@H](CC(C)C)C(=O)N[C@@H](CCC(=O)O)C(=O)NCC(=O)NCC(=O)N1CCC[C@H]1C(=O)N[C@@H](CO)C(=O)N[C@@H](CO)C(=O)NCC(=O)N[C@@H](C)C(=O)N1CCC[C@H]1C(=O)N1CCC[C@H]1C(=O)N1CCC[C@H]1C(=O)N[C@@H](CO)C(N)=O)C(C)C
B4: Example 18 (peptide)
peptide: YXEGTFISDYSILLDKKAQXDFVNXLLAQGPSSGAPPPS
modifications: D-Ala2; K17((2-[2-(2-Amino-ethoxy)-ethoxy]-acetyl)2-(γ-Glu)-CO-(CH2)16-CO2H); Aib20; 4-Pal25; C-terminal amide
B5: Example 11 (peptide)
peptide: Y[dA]EGTFISDYSILLDKK([AEEA-AEEA-γGlu-C20 diacid])AQQDFVNWLLAQGPSSGAPPPS-NH2
modifications: N-terminus assumed
SMILES: CC[C@H](C)[C@H](NC(=O)[C@H](CO)NC(=O)[C@H](Cc1ccc(O)cc1)NC(=O)[C@H](CC(=O)O)NC(=O)[C@H](CO)NC(=O)[C@@H](NC(=O)[C@H](Cc1ccccc1)NC(=O)[C@@H](NC(=O)CNC(=O)[C@H](CCC(=O)O)NC(=O)[C@@H](C)NC(=O)[C@@H](N)Cc1ccc(O)cc1)[C@@H](C)O)[C@@H](C)CC)C(=O)N[C@@H](CC(C)C)C(=O)N[C@@H](CC(C)C)C(=O)N[C@@H](CC(=O)O)C(=O)N[C@@H](CCCCN)C(=O)N[C@@H](CCCCNC(=O)COCCOCCNC(=O)COCCOCCNC(=O)CC[C@H](NC(=O)CCCCCCCCCCCCCCCCCCC(=O)O)C(=O)O)C(=O)N[C@@H](C)C(=O)N[C@@H](CCC(N)=O)C(=O)N[C@@H](CCC(N)=O)C(=O)N[C@@H](CC(=O)O)C(=O)N[C@@H](Cc1ccccc1)C(=O)N[C@H](C(=O)N[C@@H](CC(N)=O)C(=O)N[C@@H](Cc1c[nH]c2ccccc12)C(=O)N[C@@H](CC(C)C)C(=O)N[C@@H](CC(C)C)C(=O)N[C@@H](C)C(=O)N[C@@H](CCC(N)=O)C(=O)NCC(=O)N1CCC[C@H]1C(=O)N[C@@H](CO)C(=O)N[C@@H](CO)C(=O)NCC(=O)N[C@@H](C)C(=O)N1CCC[C@H]1C(=O)N1CCC[C@H]1C(=O)N1CCC[C@H]1C(=O)N[C@@H](CO)C(N)=O)C(C)C
B6: Example 12 (peptide)
peptide: Y[dA]EGTFISDYSILLDKK([AEEA-AEEA-γGlu-C20 diacid])AQQDFVNWLLAGGPSSGAPPPS-NH2
modifications: N-terminus assumed
SMILES: CC[C@H](C)[C@H](NC(=O)[C@H](CO)NC(=O)[C@H](Cc1ccc(O)cc1)NC(=O)[C@H](CC(=O)O)NC(=O)[C@H](CO)NC(=O)[C@@H](NC(=O)[C@H](Cc1ccccc1)NC(=O)[C@@H](NC(=O)CNC(=O)[C@H](CCC(=O)O)NC(=O)[C@@H](C)NC(=O)[C@@H](N)Cc1ccc(O)cc1)[C@@H](C)O)[C@@H](C)CC)C(=O)N[C@@H](CC(C)C)C(=O)N[C@@H](CC(C)C)C(=O)N[C@@H](CC(=O)O)C(=O)N[C@@H](CCCCN)C(=O)N[C@@H](CCCCNC(=O)COCCOCCNC(=O)COCCOCCNC(=O)CC[C@H](NC(=O)CCCCCCCCCCCCCCCCCCC(=O)O)C(=O)O)C(=O)N[C@@H](C)C(=O)N[C@@H](CCC(N)=O)C(=O)N[C@@H](CCC(N)=O)C(=O)N[C@@H](CC(=O)O)C(=O)N[C@@H](Cc1ccccc1)C(=O)N[C@H](C(=O)N[C@@H](CC(N)=O)C(=O)N[C@@H](Cc1c[nH]c2ccccc12)C(=O)N[C@@H](CC(C)C)C(=O)N[C@@H](CC(C)C)C(=O)N[C@@H](C)C(=O)NCC(=O)NCC(=O)N1CCC[C@H]1C(=O)N[C@@H](CO)C(=O)N[C@@H](CO)C(=O)NCC(=O)N[C@@H](C)C(=O)N1CCC[C@H]1C(=O)N1CCC[C@H]1C(=O)N1CCC[C@H]1C(=O)N[C@@H](CO)C(N)=O)C(C)C

target: T1, human glucose-dependent insulinotropic …; assay: SPA, displacement of [125I]-GIP from hGIPR membranes, 0.1% bacitracin

| Binder | Ki [nM] |
| --- | --- |
| B1 | 0.122 |
| B2 | 0.027 |
| B3 | 0.0444 |
| B4 | 0.0331 |
| B5 | 0.0584 |
| B6 | 0.0876 |

target: T2, human glucagon receptor (human, UniProt P47871 26-477); assay: SPA, displacement of [125I]-Gcg from hGcgR membranes, 0.1% bacitracin
T2 construct: whole, on cells; Assayed as crude membranes of stably transfected HEK293 cells; also called hGcgR; GcgR
T2 sequence (P47871 26-477): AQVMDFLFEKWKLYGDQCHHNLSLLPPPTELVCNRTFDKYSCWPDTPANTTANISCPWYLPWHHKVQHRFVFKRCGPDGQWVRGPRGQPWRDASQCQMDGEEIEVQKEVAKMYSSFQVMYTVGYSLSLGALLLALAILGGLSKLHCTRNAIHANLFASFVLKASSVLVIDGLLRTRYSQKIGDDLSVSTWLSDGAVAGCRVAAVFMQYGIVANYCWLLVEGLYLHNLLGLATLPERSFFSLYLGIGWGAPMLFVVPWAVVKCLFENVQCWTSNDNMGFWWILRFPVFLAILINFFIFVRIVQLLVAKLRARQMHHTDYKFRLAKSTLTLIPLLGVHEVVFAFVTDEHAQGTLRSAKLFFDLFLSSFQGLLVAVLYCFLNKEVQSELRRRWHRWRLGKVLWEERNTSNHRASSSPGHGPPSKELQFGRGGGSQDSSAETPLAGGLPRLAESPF
Summary of the method: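 Binding buffer: 25 mM HEPES pH 7.4, 2.5 mM CaCl₂, 1 mM MgCl₂, 0.003% Tween-20, protease inhibitors without EDTA. Counted by scintillation after 12 h incubation/settling at room temperature. Four-parameter nonlinear fit; Kᵢ given as geometric mean ± SEM of independent replicates run on different days.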

| Binder | Ki [nM] |
| --- | --- |
| B1 | 54.4 |
| B2 | 101 |
| B3 | 76 |
| B4 | 463 |
| B5 | 163 |
| B6 | 134 |

target: T3, human GLP-1 receptor (human, UniProt P43220 24-463); assay: SPA, displacement of [125I]-GLP-1 from hGLP-1R membranes, 0.1% bacitracin
T3 construct: whole, on cells; Assayed as crude membranes of stably transfected HEK293 cells; also called hGLP1R; hGLP-1R
Summary of the method: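 Binding buffer: 25 mM HEPES pH 7.4, 2.5 mM CaCl₂, 1 mM MgCl₂, 0.1% bacitracin, 0.003% Tween-20, protease inhibitors without EDTA. Four-parameter nonlinear regression; Kᵢ given as geometric mean ± SEM, n = independent replicates run on different days.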

| Binder | Ki [nM] |
| --- | --- |
| B1 | 37.4 |
| B2 | 38.1 |
| B3 | 235 |
| B4 | 158 |
| B5 | 85.9 |
| B6 | 46.8 |
